Assay results reported in patent publication US20220135687A1.

What was measured:
[1] = target: cynomolgus PD-L1 overexpressing stable cell line (cynomolgus) (UniProt G7PSE7); assay: FACS, cynomolgus PD-L1 cell line
[2] = target: cynomolgus PD-L1 Fc-fusion protein (cynomolgus) (UniProt G7PSE7); assay: SPR, cyno PD-L1-Fc immobilised, antibody analyte
cynomolgus PD-L1 Fc-fusion protein (cynomolgus), sequence (G7PSE7 entry or part of it limits assumed): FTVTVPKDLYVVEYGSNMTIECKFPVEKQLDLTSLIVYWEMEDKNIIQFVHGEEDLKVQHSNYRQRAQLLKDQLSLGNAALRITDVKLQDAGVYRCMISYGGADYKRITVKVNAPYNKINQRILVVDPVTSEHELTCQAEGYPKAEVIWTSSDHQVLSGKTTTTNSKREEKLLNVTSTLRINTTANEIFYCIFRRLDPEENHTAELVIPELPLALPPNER

Durvalumab (antibody), sequence (VH): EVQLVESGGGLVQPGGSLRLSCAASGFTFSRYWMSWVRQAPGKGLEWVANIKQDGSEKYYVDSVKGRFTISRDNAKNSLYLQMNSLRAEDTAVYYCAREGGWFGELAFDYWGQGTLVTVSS
Durvalumab (antibody), sequence (VL): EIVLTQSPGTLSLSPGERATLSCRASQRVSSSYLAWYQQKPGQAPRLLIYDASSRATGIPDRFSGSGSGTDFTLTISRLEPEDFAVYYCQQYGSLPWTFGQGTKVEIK
cynomolgus PD-L1 overexpressing stable cell line (cynomolgus), sequence (G7PSE7 entry or part of it limits assumed): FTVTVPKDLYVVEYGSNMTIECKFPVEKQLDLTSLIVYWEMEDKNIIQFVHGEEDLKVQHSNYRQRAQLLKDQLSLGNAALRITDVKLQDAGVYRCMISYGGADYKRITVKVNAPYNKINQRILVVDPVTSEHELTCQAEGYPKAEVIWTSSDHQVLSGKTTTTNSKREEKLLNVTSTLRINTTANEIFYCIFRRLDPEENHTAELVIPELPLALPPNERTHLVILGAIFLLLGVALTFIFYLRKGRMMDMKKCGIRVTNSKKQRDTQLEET

Durvalumab (antibody)
EC50 [1]: 3.07 nM
Top (best-fit value) [1]: 8220
Kd [2]: 1.1 nM
